From US20240124563A1
Blank lines part the entries; values can stand above or below the substance they belong to.

Tests used:
[1] = biological target: monkey MSLN full-length protein on HEK293T cells (monkey); test: FACS, HEK293T-monkey-MSLN cells, antibody 4 nM
[2] = biological target: monkey MSLN full-length protein on HEK293T cells (monkey); test: FACS, HEK293T-monkey-MSLN cells, antibody 20 nM
[3] = biological target: monkey MSLN full-length protein on HEK293T cells (monkey); test: FACS, HEK293T-monkey-MSLN cells, antibody 0.8 nM
[4] = biological target: monkey MSLN full-length protein on HEK293T cells (monkey); test: FACS, HEK293T-monkey-MSLN cells, antibody 100 nM
[5] = biological target: monkey MSLN full-length protein on HEK293T cells (monkey); test: FACS, HEK293T-monkey-MSLN cells, antibody 0.16 nM
[6] = biological target: monkey MSLN full-length protein on HEK293T cells (monkey); test: FACS, HEK293T-monkey-MSLN cells, antibody 0.032 nM
[7] = biological target: monkey MSLN full-length protein on HEK293T cells (monkey); test: FACS, HEK293T-monkey-MSLN cells, antibody 0.0064 nM
[8] = biological target: monkey MSLN full-length protein on HEK293T cells (monkey); test: FACS, HEK293T-monkey-MSLN cells, antibody 0.00128 nM
[9] = biological target: human MSLN-R3-rFc protein (human) (UniProt Q13421); test: ELISA, antibody 4 nM
[10] = biological target: human MSLN-R3-rFc protein (human) (UniProt Q13421); test: ELISA, antibody 1 nM
[11] = biological target: human MSLN-R3-rFc protein (human) (UniProt Q13421); test: ELISA, antibody 20 nM
[12] = biological target: human MSLN-R3-rFc protein (human) (UniProt Q13421); test: ELISA, antibody 100 nM
[13] = biological target: human MSLN-R3-rFc protein (human) (UniProt Q13421); test: ELISA, antibody 0.0064 nM
[14] = biological target: monkey MSLN full-length protein on HEK293T cells (monkey); test: FACS, HEK293T-monkey MSLN cells
[15] = biological target: human MSLN-R1-his protein (human) (UniProt Q13421); test: ELISA, coated antigen, 100 nM antibody
Chain of human MSLN-R1-his protein (human) (Q13421 other isoform, or with tags, fused parts or gaps): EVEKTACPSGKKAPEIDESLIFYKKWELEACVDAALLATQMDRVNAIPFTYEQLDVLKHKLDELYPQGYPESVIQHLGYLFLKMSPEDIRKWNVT

[16] = biological target: human MSLN-FL-his protein (human) (UniProt Q13421); test: ELISA, coated antigen, 20 nM antibody
Chain of human MSLN-FL-his protein (human) (Q13421 other isoform, or with tags, fused parts or gaps): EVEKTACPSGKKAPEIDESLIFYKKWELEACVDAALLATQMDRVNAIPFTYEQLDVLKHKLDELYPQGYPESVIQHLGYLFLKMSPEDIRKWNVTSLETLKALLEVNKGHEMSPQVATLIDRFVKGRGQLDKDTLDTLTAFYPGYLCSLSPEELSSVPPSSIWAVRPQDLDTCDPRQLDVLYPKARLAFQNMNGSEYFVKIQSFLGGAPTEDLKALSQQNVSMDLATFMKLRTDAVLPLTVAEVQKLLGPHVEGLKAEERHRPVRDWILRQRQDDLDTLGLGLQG

[17] = biological target: human MSLN-R2-his protein (human) (UniProt Q13421); test: ELISA, coated antigen, 100 nM antibody
Chain of human MSLN-R2-his protein (human) (Q13421 other isoform, or with tags, fused parts or gaps): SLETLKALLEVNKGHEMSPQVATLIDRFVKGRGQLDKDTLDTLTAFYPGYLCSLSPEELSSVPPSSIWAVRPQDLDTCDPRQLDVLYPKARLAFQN

[18] = biological target: human MSLN-FL-his protein (human) (UniProt Q13421); test: ELISA, coated antigen, 0.2 nM antibody

FACS signal (MFI) [1]: 86
FACS signal (MFI) [2]: 85
FACS signal (MFI) [3]: 87
FACS signal (MFI) [4]: 87
FACS signal (MFI) [5]: 83
FACS signal (MFI) [6]: 106
FACS signal (MFI) [7]: 85
FACS signal (MFI) [8]: 93
Substance: Tab131 (m912, scFv-hIgG1 Fc) (Fc fusion)

OD450 nm [9]: 0.23
OD450 nm [10]: 0.11
OD450 nm [11]: 0.86
OD450 nm [12]: 1.11
OD450 nm [13]: 0.16
Substance: anti-human MSLN antibody (purchased from Acro, Cat. No. MSN-M30)

EC50 [14]: 0.83 nM
Max MFI [14]: 4240
OD450 nm [15]: 0.12 OD450 nm
Substance: Tab108 (YP218, scFv-hIgG1 Fc) (Fc fusion)

OD450 nm [16]: 0.28 OD450 nm
OD450 nm [15]: 0.2 OD450 nm
OD450 nm [17]: 0.16 OD450 nm
OD450 nm [18]: 0.24 OD450 nm
Substance: hIgG1 (IgG control) (antibody)
